Measured values: paper PMC12516185

Molecular target: Zea mays pullulanase1 (ZPU1), from residue 80, GAL4 fusion (maize (Zea mays L.)) (UniProt O81638)

Red Pullulan hydrolysis (ZPU1 activity) in total soluble extracts of yeast strain 830 (ISA1 and ZPU1) compared with strain 808 (ZPU1 alone): 1.7 fold
Substance: maize isoamylase1 (ISA1), mature protein from residue 50, GAL4 fusion (from UniProt O22637 50-789) (enzyme)
